According to publication PMC4653032:

How the values were obtained:
Conditions in all cases: glycan lost; control: wild-type CD133
[1] = immunofluorescence with ER dye, HEK293T
[2] = surface flow cytometry, HEK293T and HepG2
[3] = FLAG IP, PY828 blot, HEK293T with Src
[4] = anti-CD133 western blot, HEK293T lysates

B1: CD133 (prominin-1): N548Q (protein)
parent chain: MALVLGSLLLLGLCGNSFSGGQPSSTDAPKAWNYELPATNYETQDSHKAGPIGILFELVHIFLYVVQPRDFPEDTLRKFLQKAYESKIDYDKPETVILGLKIVYYEAGIILCCVLGLLFIILMPLVGYFFCMCRCCNKCGGEMHQRQKENGPFLRKCFAISLLVICIIISIGIFYGFVANHQVRTRIKRSRKLADSNFKDLRTLLNETPEQIKYILAQYNTTKDKAFTDLNSINSVLGGGILDRLRPNIIPVLDEIKSMATAIKETKEALENMNSTLKSLHQQSTQLSSSLTSVKTSLRSSLNDPLCLVHPSSETCNSIRLSLSQLNSNPELRQLPPVDAELDNVNNVLRTDLDGLVQQGYQSLNDIPDRVQRQTTTVVAGIKRVLNSIGSDIDNVTQRLPIQDILSAFSVYVNNTESYIHRNLPTLEEYDSYWWLGGLVICSLLTLIVIFYYLGLLCGVCGYDRHATPTTRGCVSNTGGVFLMVGVGLSFLFCWILMIIVVLTFVFGANVEKLICEPYTSKELFRVLDTPYLLNEDWEYYLSGKLFNKSKMKLTFEQVYSDCKKNRGTYGTLHLQNSFNISEHLNINEHTGSISSELESLKVNLNIFLLGAAGRKNLQDFAACGIDRMNYDSYLAQTGKSPAGVNLLSFAYDLEAKANSLPPGNLRNSLKRDAQTIKTIHQQRVLPIEQSLSTLYQSVKILQRTGNGLLERVTRILASLDFAQNFITNNTSSVIIEETKKYGRTIIGYFEHYLQWIEFSISEKVASCKPVATALDTAVDVFLCSYIIDPLNLFWFGIGKATVFLLPALIFAVKLAKYYRRMDSEDVYDDVETIPMKNMENGNNGYHKDHVYGIHNPVMTSPSQH
no change: localisation_or_trafficking [1] | localisation_or_trafficking [2] | other: Y828 phosphorylation [3] | expression_or_secretion [4]

B2: CD133 (prominin-1): N730Q (protein)
parent chain: B1 parent chain
no change: localisation_or_trafficking [1] | localisation_or_trafficking [2] | expression_or_secretion [4]

B3: CD133 (prominin-1): N729Q (protein)
parent chain: B1 parent chain
no change: localisation_or_trafficking [1] | localisation_or_trafficking [2] | expression_or_secretion [4]
